Test results reported in article PMC9750922, “Improvement of thermoalkaliphilic laccase (CtLac) by a directed evolution and application to lignin degradation” (Applied Microbiology and Biotechnology, 2022).

B1: CtLac (Caldalkalibacillus thermarum TA2.A1) (protein)
chain: MKRILTLVLLLTVFIIVLVGCSTSPVDHSKMVHGEDDSTDNKQQEETQQIETSEGKVVINLEAKVTHWMFNNDLMEDIWTYNGSLPGQEIRVQEGDHVVINLTNSLDVPTSLHLHGVPVPNEMDGVPGVTQNAIMPGETFTYEFVADTPGTYWYHSHQDGANQIGMGLYGALVVEHKDQPDYDLDQVIMIDEWSSMGMADMDHSGMDHGDHGNMGDNSDQPPHAEMMNMMYDTLIVNGKASPVIEAIGVSEDDTIKLRFVNTGLFTQVITIPGHEFKVTHYDGQQVNEPELISDTAIRIAPAERYDVEIEMNQPGAWGIQIYAEENENLRGIVPLVYAGFEDEELQTADSIQSFLDISAYGSPMNVNFGEITKEFDMILGSDDGGETFTINGKQMTTKGFESHEDHEIYEVEEGDVVKVNIVNDTDVDHPMHLHGHFFYVVSRNGQPVKGSPILKETLNVRPNEAYEIVFVADNPGHWMFHCHELHHASGGMVSEVRYSGYTPAFTPDPNIPNKPE
notes: 516 aa, full-length gene incl; N-terminal region in pET28a(+) (NdeI/XhoI), His-tagged, E. coli BL21(DE3), HisTrap purified; primers encode N-terminus MKRILTLVL and C-terminus IPNKPE
B2: CtLac (Caldalkalibacillus thermarum TA2.A1; V243M) (protein)
chain: MKRILTLVLLLTVFIIVLVGCSTSPVDHSKMVHGEDDSTDNKQQEETQQIETSEGKVVINLEAKVTHWMFNNDLMEDIWTYNGSLPGQEIRVQEGDHVVINLTNSLDVPTSLHLHGVPVPNEMDGVPGVTQNAIMPGETFTYEFVADTPGTYWYHSHQDGANQIGMGLYGALVVEHKDQPDYDLDQVIMIDEWSSMGMADMDHSGMDHGDHGNMGDNSDQPPHAEMMNMMYDTLIVNGKASPMIEAIGVSEDDTIKLRFVNTGLFTQVITIPGHEFKVTHYDGQQVNEPELISDTAIRIAPAERYDVEIEMNQPGAWGIQIYAEENENLRGIVPLVYAGFEDEELQTADSIQSFLDISAYGSPMNVNFGEITKEFDMILGSDDGGETFTINGKQMTTKGFESHEDHEIYEVEEGDVVKVNIVNDTDVDHPMHLHGHFFYVVSRNGQPVKGSPILKETLNVRPNEAYEIVFVADNPGHWMFHCHELHHASGGMVSEVRYSGYTPAFTPDPNIPNKPE
notes: as for B1
B3: CtLac (Caldalkalibacillus thermarum TA2.A1; V243D) (protein)
chain: MKRILTLVLLLTVFIIVLVGCSTSPVDHSKMVHGEDDSTDNKQQEETQQIETSEGKVVINLEAKVTHWMFNNDLMEDIWTYNGSLPGQEIRVQEGDHVVINLTNSLDVPTSLHLHGVPVPNEMDGVPGVTQNAIMPGETFTYEFVADTPGTYWYHSHQDGANQIGMGLYGALVVEHKDQPDYDLDQVIMIDEWSSMGMADMDHSGMDHGDHGNMGDNSDQPPHAEMMNMMYDTLIVNGKASPDIEAIGVSEDDTIKLRFVNTGLFTQVITIPGHEFKVTHYDGQQVNEPELISDTAIRIAPAERYDVEIEMNQPGAWGIQIYAEENENLRGIVPLVYAGFEDEELQTADSIQSFLDISAYGSPMNVNFGEITKEFDMILGSDDGGETFTINGKQMTTKGFESHEDHEIYEVEEGDVVKVNIVNDTDVDHPMHLHGHFFYVVSRNGQPVKGSPILKETLNVRPNEAYEIVFVADNPGHWMFHCHELHHASGGMVSEVRYSGYTPAFTPDPNIPNKPE
notes: as for B1

The proteins below were run on COc1cccc(OC)c1O (assay: purified protein). Conditions: 25 °C, pH 8.0, citrate phosphate buffer 50 mM, 1 mM CuCl2, air O2.
Type: biochemical, Caldalkalibacillus thermarum
Work on B1 yielded a Km of 157.2 µM, a kcat of 1.1 s⁻¹ and a kcat/Km of 7000 M⁻¹ s⁻¹.
B2 gave a Km of 674.2 µM, a kcat of 0.1 s⁻¹ and a kcat/Km of 100 M⁻¹ s⁻¹.
B3 was tested, and the Km was 137.2 µM, the kcat was 2.7 s⁻¹ and the kcat/Km was 20000 M⁻¹ s⁻¹.
